In paper doi:10.1101/2022.09.21.508836 (bioRxiv, 2022):

Target: FIP200 (full length) (human, UniProt Q8TDY2 1-1594)
Assay: pull-down

Chain of FIP200 (full length) (Q8TDY2 whole entry): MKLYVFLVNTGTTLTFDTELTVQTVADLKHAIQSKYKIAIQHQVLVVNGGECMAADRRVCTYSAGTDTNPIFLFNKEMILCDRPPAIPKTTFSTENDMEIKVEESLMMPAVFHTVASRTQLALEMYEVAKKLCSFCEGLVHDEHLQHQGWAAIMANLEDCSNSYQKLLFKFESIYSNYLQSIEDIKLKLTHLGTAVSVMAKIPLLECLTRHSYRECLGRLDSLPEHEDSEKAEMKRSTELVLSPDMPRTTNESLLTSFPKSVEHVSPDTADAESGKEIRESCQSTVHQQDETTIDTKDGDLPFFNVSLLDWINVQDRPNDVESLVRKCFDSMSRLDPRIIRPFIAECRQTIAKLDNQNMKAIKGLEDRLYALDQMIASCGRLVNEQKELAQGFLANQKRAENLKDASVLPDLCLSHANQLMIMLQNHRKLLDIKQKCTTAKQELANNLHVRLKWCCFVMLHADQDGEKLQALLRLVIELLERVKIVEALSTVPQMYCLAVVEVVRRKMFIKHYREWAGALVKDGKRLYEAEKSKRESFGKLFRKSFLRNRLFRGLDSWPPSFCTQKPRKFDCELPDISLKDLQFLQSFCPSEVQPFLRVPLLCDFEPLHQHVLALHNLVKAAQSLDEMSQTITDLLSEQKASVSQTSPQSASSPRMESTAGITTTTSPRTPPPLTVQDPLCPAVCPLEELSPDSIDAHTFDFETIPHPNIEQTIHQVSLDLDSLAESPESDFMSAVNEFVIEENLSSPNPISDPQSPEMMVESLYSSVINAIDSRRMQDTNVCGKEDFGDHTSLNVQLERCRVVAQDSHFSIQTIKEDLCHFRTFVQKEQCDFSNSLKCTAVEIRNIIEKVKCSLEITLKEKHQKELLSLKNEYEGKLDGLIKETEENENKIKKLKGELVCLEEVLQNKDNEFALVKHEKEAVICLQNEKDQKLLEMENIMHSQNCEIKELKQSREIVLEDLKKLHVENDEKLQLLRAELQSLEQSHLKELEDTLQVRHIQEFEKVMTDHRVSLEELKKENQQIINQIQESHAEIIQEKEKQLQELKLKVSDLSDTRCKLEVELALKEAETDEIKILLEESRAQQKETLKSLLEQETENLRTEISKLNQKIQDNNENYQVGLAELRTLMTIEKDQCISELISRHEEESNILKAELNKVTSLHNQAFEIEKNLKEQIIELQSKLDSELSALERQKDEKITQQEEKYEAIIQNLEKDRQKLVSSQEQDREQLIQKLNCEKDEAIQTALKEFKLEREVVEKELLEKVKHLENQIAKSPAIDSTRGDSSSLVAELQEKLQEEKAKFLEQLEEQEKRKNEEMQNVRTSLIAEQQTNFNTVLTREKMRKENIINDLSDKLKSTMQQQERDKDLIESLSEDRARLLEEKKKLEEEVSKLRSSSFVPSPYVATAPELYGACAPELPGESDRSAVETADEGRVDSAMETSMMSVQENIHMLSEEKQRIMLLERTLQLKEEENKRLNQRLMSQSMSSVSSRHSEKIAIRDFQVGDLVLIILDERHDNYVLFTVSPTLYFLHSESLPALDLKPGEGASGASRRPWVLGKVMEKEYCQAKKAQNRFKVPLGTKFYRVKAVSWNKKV

B1: ULK1 (full length) (enzyme)
chain: MEPGRGGTETVGKFEFSRKDLIGHGAFAVVFKGRHREKHDLEVAVKCINKKNLAKSQTLLGKEIKILKELKHENIVALYDFQEMANSVYLVMEYCNGGDLADYLHAMRTLSEDTIRLFLQQIAGAMRLLHSKGIIHRDLKPQNILLSNPAGRRANPNSIRVKIADFGFARYLQSNMMAATLCGSPMYMAPEVIMSQHYDGKADLWSIGTIVYQCLTGKAPFQASSPQDLRLFYEKNKTLVPTIPRETSAPLRQLLLALLQRNHKDRMDFDEFFHHPFLDASPSVRKSPPVPVPSYPSSGSGSSSSSSSTSHLASPPSLGEMQQLQKTLASPADTAGFLHSSRDSGGSKDSSCDTDDFVMVPAQFPGDLVAEAPSAKPPPDSLMCSGSSLVASAGLESHGRTPSPSPPCSSSPSPSGRAGPFSSSRCGASVPIPVPTQVQNYQRIERNLQSPTQFQTPRSSAIRRSGSTSPLGFARASPSPPAHAEHGGVLARKMSLGGGRPYTPSPQVGTIPERPGWSGTPSPQGAEMRGGRSPRPGSSAPEHSPRTSGLGCRLHSAPNLSDLHVVRPKLPKPPTDPLGAVFSPPQASPPQPSHGLQSCRNLRGSPKLPDFLQRNPLPPILGSPTKAVPSFDFPKTPSSQNLLALLARQGVVMTPPRNRTLPDLSEVGPFHGQPLGPGLRPGEDPKGPFGRSFSTSRLTDLLLKAAFGTQAPDPGSTESLQEKPMEIAPSAGFGGSLHPGARAGGTSSPSPVVFTVGSPPSGSTPPQGPRTRMFSAGPTGSASSSARHLVPGPCSEAPAPELPAPGHGCSFADPITANLEGAVTFEAPDLPEETLMEQEHTEILRGLRFTLLFVQHVLEIAALKGSASEAAGGPEYQLQESVVADQISLLSREWGFAEQLVLYLKVAELLSSGLQSAIDQIRAGKLCLSSTVKQVVRRLNELYKASVVSCQGLSLRLQRFFLDKQRLLDRIHSITAERLIFSHAVQMVQSAALDEMFQHREGCVPRYHKALLLLEGLQHMLSDQADIENVTKCKLCIERRLSALLTGICA
binding result: binds
